This note sets out measurements from patent US20240132615A1.

The target of one assay is soluble BCMA (UniProt Q02223). As to the kind of experiment: cell-based or functional assay.
In assay [1] the target is human CD38 on multiple myeloma cells (human) (UniProt P28907). Nature of the assay: flow cytometry on NCI-H929 BCMA KO cells (BCMA-negative, CD38-positive).

Sequence of soluble BCMA (Q02223 1-54 limits assumed): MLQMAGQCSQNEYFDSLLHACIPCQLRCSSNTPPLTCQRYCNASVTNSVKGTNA

In the assay with soluble BCMA, alnuctamab (bispecific antibody) yielded a Fold difference to no soluble factor condition (EC50 from % Cytotoxicity), sBCMA of 380 fold and a Fold difference to no soluble factor condition (EC50 from % Killing to No Ab), sBCMA of 367 fold. For the same substance, in assay [1], the Maximum binding (RFI) amounted to 101 RFI.
In the assay with soluble BCMA, teclistamab (bispecific antibody) gave a Fold difference to no soluble factor condition (EC50 from % Cytotoxicity), sBCMA of 75 fold and a Fold difference to no soluble factor condition (EC50 from % Killing to No Ab), sBCMA of 30 fold. The substance further showed a Maximum binding (RFI) in assay [1] of 104 RFI.
